Measurements as given in patent US11491212.

Sequence of Factor X (FX), P00742 (P00742 whole entry, looked up): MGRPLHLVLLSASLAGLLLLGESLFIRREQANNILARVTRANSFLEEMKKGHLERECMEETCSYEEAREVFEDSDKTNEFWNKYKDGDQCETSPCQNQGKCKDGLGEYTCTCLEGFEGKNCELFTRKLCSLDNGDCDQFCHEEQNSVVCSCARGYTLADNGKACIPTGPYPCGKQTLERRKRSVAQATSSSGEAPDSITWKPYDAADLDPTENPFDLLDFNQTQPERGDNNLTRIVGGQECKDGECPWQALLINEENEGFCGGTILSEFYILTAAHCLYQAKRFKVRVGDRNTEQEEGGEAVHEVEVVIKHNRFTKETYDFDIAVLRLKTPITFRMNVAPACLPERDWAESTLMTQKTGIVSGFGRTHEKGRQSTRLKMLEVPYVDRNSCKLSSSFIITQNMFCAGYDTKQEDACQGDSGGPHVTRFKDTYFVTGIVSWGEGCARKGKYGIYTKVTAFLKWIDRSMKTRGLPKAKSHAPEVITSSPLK
Sequence of Factor X, P00742 (P00742 whole entry, looked up): as above

Protein | % of WT kcat/KM (against Catalyst Biosciences WT FIXa) (Factor X (FX), P00742) | KM (Factor X (FX), P00742) | kcat/KM for activation of FX by FIXa in the Xase complex (FVIIIa, PC/PS vesicles, Ca2+), fluorogenic Spectrafluor FXa read-out (Factor X (FX), P00742) | kcat (Factor X, P00742) | % of WT kcat/KM (against Catalyst Biosciences WT FIXa), FX activation in the Xase complex (Factor X (FX), P00742) | KM (nM) for activation of FX by FIXa in the Xase complex (FVIIIa, PC/PS vesicles, Ca2+), fluorogenic Spectrafluor FXa assay (Factor X (FX), P00742) | kcat (Factor X (FX), P00742) | kcat/KM for FX activation by FIXa in the Xase complex (FVIIIa, PC/PS vesicles, Ca2+), indirect fluorogenic Spectrafluor FXa assay (Factor X (FX), P00742) | kcat/KM (Factor X, P00742)
FIXa-K228N/K247N/N249S/R318Y/R338E/R403E/E410N (protein) chain 1: not shown chain 2: not shown | 352% | 0.0497 µM | 1.6e+08 M⁻¹ s⁻¹ | 7.1 s⁻¹ |  |  |  |  | 
FIXa-Y155F/K247N/N249S/R318Y/R338E/R403E/E410N (protein) chain 1: not shown chain 2: not shown | 405% | 0.0363 µM | 1.9e+08 M⁻¹ s⁻¹ | 6.2 s⁻¹ |  |  |  |  | 
FIXa-Y155F/K228N/R318Y/R338E/R403E/E410N (protein) chain 1: not shown chain 2: not shown | 356% | 0.0408 µM | 1.6e+08 M⁻¹ s⁻¹ | 6.7 s⁻¹ |  |  |  |  | 
FIXa-Y155F/K247N/N249S/R318Y/R338E/E410N (protein) chain 1: not shown chain 2: not shown | 717% | 0.0147 µM | 3.3e+08 M⁻¹ s⁻¹ | 4.5 s⁻¹ |  |  |  |  | 
FIXa-K247N/N249S/N260S/R318Y/R338E/R403E/E410N (protein) chain 1: not shown chain 2: not shown |  | 0.0474 µM |  |  | 217% | 62.2 nM | 3.4 s⁻¹ | 9.7e+07 M⁻¹ s⁻¹ | 6.7e+07 M⁻¹ s⁻¹
FIXa-I251S/R318Y/R338E/E410N (protein) chain 1: not shown chain 2: not shown | 849% | 0.0161 µM | 3.9e+08 M⁻¹ s⁻¹ | 6.4 s⁻¹ |  |  |  |  | 
FIXa-D104N/K106S/K228N/K247N/N249S/R318Y/R338E/R403E/E410N (protein) chain 1: not shown chain 2: not shown |  | 0.0533 µM |  | 6.1 s⁻¹ |  |  |  |  | 1.1e+08 M⁻¹ s⁻¹
FIXa-R318Y/R338E/E410N/T412V (protein) chain 1: not shown chain 2: not shown |  | 0.0236 µM |  |  | 536% |  | 5.2 s⁻¹ | 2.4e+08 M⁻¹ s⁻¹ | 2.6e+08 M⁻¹ s⁻¹
FIXa-R318Y/R338E/R403E/E410N/T412V (protein) chain 1: not shown chain 2: not shown |  | 0.0483 µM |  |  |  |  | 7 s⁻¹ |  | 1.6e+08 M⁻¹ s⁻¹
FIXa-R318Y/R338E/R403E/E410N/T412A (protein) chain 1: not shown chain 2: not shown |  | 0.0344 µM |  |  |  |  | 7.8 s⁻¹ |  | 2.5e+08 M⁻¹ s⁻¹
FIXa-R318Y/R338E/R403E/E410S (protein) chain 1: not shown chain 2: not shown | 458% | 0.0364 µM | 2.1e+08 M⁻¹ s⁻¹ | 7.4 s⁻¹ |  |  |  |  | 
FIXa-D104N/K106S/Y155F/K247N/N249S/R318Y/R338E/R403E/E410N (protein) chain 1: not shown chain 2: not shown | 292% | 0.0518 µM | 1.3e+08 M⁻¹ s⁻¹ | 6.9 s⁻¹ |  |  |  |  | 
